Among the targets are MMP8 (human, UniProt P22894 101-467, limits assumed); MMP13 (human, UniProt P45452 104-471, limits assumed); MMP9 (human, UniProt P14780 107-707, limits assumed); MMP3 (human, UniProt P08254 100-477, limits assumed).
What all share (assay): cell-based or functional assay
A further experiment has as its target T1, ADAMTS4 (human, UniProt O75173 213-685, limits assumed).
T1 sequence (looked up): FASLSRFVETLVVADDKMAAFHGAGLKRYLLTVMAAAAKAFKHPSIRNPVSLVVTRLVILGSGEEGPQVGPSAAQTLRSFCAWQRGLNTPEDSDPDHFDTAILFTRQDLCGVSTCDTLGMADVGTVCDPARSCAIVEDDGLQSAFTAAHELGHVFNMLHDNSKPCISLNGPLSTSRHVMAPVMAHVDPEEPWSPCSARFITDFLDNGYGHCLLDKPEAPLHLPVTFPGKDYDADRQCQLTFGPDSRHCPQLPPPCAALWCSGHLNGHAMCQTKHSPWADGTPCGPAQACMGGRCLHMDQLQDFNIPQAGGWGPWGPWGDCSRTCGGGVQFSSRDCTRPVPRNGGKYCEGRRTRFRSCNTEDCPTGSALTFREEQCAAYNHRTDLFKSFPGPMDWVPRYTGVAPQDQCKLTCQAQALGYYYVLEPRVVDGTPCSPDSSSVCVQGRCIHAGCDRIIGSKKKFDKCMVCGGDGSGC

The next experiment has as its target T2, ADAMTS5 (human, UniProt Q9UNA0 262-622, limits assumed).
T2 sequence (looked up): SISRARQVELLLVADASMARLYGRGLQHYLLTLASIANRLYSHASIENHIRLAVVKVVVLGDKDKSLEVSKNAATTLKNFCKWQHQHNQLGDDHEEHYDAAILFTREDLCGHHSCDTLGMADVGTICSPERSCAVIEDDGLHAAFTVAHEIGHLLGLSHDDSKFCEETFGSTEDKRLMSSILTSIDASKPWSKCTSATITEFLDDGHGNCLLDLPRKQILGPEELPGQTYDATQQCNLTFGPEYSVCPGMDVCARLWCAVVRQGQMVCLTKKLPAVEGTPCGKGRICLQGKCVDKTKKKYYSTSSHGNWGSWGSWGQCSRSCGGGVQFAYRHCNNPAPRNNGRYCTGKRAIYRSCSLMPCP

A further experiment deals with T3, MMP1 (human, UniProt P03956 100-469, limits assumed).
T3 sequence (looked up): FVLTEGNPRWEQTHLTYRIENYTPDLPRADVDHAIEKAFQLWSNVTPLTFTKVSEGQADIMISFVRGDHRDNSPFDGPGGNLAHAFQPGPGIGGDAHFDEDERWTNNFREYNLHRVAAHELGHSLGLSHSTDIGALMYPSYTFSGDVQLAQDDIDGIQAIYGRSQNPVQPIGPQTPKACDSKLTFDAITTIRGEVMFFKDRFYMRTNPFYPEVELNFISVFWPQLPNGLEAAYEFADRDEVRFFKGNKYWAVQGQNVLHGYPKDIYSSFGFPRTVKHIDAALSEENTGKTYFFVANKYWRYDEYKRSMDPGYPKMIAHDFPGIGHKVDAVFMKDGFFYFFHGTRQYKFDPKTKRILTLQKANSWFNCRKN

The target of the next experiment is T4, MMP2 (human, UniProt P08253 110-660, limits assumed).
T4 sequence (looked up): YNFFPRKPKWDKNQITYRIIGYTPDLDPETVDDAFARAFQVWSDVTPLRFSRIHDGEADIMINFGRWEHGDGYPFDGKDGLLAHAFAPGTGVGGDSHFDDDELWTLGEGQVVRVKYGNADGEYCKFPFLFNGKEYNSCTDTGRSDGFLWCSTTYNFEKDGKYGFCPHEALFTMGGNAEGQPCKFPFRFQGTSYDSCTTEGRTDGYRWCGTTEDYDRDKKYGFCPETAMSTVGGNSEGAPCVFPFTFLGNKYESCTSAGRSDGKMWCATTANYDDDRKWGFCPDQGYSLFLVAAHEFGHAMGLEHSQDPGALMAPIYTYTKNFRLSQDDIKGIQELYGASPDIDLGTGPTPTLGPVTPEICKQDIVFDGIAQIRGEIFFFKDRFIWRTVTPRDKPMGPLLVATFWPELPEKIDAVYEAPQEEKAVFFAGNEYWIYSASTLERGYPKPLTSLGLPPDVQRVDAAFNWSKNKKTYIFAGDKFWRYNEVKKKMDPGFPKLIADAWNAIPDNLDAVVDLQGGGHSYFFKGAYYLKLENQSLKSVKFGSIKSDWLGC

MMP3, sequence (P08254 100-477 limits assumed): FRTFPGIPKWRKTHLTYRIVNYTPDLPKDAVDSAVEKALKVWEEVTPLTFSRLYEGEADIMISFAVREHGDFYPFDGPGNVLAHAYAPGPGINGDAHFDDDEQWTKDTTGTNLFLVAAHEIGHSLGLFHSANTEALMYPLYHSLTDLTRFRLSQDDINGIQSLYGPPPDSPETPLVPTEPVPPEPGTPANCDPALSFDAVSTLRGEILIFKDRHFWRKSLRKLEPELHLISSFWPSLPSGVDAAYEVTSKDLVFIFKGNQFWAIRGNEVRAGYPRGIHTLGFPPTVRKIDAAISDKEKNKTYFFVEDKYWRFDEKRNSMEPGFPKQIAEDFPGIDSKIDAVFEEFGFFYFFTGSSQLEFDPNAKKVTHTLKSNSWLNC
MMP9, sequence (P14780 107-707 limits assumed): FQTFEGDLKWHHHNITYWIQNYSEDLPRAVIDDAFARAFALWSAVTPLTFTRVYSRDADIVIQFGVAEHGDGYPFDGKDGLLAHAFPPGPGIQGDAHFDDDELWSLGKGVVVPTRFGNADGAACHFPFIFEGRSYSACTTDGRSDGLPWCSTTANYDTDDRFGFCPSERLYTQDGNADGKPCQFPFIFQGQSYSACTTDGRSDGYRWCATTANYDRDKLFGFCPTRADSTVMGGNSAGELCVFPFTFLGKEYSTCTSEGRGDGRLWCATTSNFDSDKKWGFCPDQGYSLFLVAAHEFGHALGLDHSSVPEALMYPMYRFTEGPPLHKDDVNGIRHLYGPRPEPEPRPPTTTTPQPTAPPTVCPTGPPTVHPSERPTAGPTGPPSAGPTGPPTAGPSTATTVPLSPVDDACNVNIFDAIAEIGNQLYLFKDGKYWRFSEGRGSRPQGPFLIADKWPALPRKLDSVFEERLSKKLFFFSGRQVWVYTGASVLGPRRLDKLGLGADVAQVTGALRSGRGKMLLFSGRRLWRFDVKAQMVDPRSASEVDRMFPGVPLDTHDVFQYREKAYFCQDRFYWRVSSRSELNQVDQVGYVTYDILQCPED
MMP8, sequence (P22894 101-467 limits assumed): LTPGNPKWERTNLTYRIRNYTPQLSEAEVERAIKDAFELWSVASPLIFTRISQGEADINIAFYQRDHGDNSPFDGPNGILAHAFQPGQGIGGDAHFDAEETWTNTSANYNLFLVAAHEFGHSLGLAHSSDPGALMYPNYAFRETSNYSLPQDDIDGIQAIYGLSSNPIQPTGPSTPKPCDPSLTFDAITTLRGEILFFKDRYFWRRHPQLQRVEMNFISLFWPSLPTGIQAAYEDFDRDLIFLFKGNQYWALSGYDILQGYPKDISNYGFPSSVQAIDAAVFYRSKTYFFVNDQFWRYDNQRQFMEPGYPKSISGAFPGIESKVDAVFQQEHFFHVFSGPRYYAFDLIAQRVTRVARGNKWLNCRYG

B1: Variant A2M, bait region SEQ ID NO 87 (other)
chain: SVSGKPQYMVLVPSLLHTETTEKGCVLLSYLNETVTVSASLESVRGNRSLFTDLEAENDVLHCVAFAVPKSSSNEEVMFLTVQVKGPTQEFKKRTTVMVKNEDSLVFVQTDKSIYKPGQTVKFRVVSMDENFHPLNELIPLVYIQDPKGNRIAQWQSFQLEGGLKQFSFPLSSEPFQGSYKVVVQKKSGGRTEHPFTVEEFVLPKFEVQVTVPKIITILEEEMNVSVCGLYTYGKPVPGHVTVSICRKYSDASDCHGEDSQAFCEKFSGQLNSHGCFYQQVKTKVFQLKRKEYEMKLHTEAQIQEEGTVVELTGRQSSEITRTITKLSFVKVDSHFRQGIPFFGQVRLVDGKGVPIPNKVIFIRGNEANYYSNATTDEHGLVQFSINTTNVMGTSLTVRVNYKDRSPCYGYQWVSEEHEEAHHTAYLVFSPSKSFVHLEPMSHELPCGHTQTVQAHYILNGGTLLGLKKLSFYYLIMAKGGIVRTGTHGLLVKQEDMKGHFSISIPVKSDIAPVARLLIYAVLPTGDVIGDSAKYDVENCLANKVDLSFSPSQSLPASHAHLRVTAAPQSVCALRAVDQSVLLMKPDAELSASSVYNLLPEKDLTGFPGPLNDQDDEDCINRHNVYINGITYTPVSSTNEKDMYSFLEDMGLKAFTNSKIRKPKMCPQLEQYEMHGPEGLRVGKEEEGLGSSELEGRGSTAQEAGEGKLRKYFPETWIWDLVVVNSAGVAEVGVTVPDTITEWKAGAFCLSEDAGLGISSTASLRAFQPFFVELTMPYSVIRGEAFTLKATVLNYLPKCIRVSVQLEASPAFLAVPVEKEQAPHCICANGRQTVSWAVTPKSLGNVNFTVSAEALESQELCGTEVPSVPEHGRKDTVIKPLLVEPEGLEKETTFNSLLCPSGGEVSEELSLKLPPNVVEESARASVSVLGDILGSAMQNTQNLLQMPYGCGEQNMVLFAPNIYVLDYLNETQQLTPEIKSKAIGYLNTGYQRQLNYKHYDGSYSTFGERYGRNQGNTWLTAFVLKTFAQARAYIFIDEAHITQALIWLSQRQKDNGCFRSSGSLLNNAIKGGVEDEVTLSAYITIALLEIPLTVTHPVVRNALFCLESAWKTAQEGDHGSHVYTKALLAYAFALAGNQDKRKEVLKSLNEEAVKKDNSVHWERPQKPKAPVGHFYEPQAPSAEVEMTSYVLLAYLTAQPAPTSEDLTSATNIVKWITKQQNAQGGFSSTQDTVVALHALSKYGAATFTRTGKAAQVTIQSSGTFSSKFQVDNNNRLLLQQVSLPELPGEYSMKVTGEGCVYLQTSLKYNILPEKEEFPFALGVQTLPQTCDEPKAHTSFQISLSVSYTGSRSASNMAIVDVKMVSGFIPLKPTVKMLERSNHVSRTEVSSNHVLIYLDKVSNQTLSLFFTVLQDVPVRDLKPAIVKVYDYYETDEFAIAEYNAPCSKDLGNADYKDDDDKGASHHHHHH
As to B1, the “Protease Inhibition (% of WT)” value is 160 % of WT with ADAMTS4; 170 % of WT with ADAMTS5; 150 % of WT with MMP1; 40 % of WT with MMP8; 150 % of WT with MMP13; 100 % of WT with MMP2. The “Protease Inhibition (% of WT)” value is 70 % of WT in the experiment with MMP9 and 40 % of WT in the experiment with MMP3.

B2: Variant A2M, bait region SEQ ID NO 92 (other)
chain: SVSGKPQYMVLVPSLLHTETTEKGCVLLSYLNETVTVSASLESVRGNRSLFTDLEAENDVLHCVAFAVPKSSSNEEVMFLTVQVKGPTQEFKKRTTVMVKNEDSLVFVQTDKSIYKPGQTVKFRVVSMDENFHPLNELIPLVYIQDPKGNRIAQWQSFQLEGGLKQFSFPLSSEPFQGSYKVVVQKKSGGRTEHPFTVEEFVLPKFEVQVTVPKIITILEEEMNVSVCGLYTYGKPVPGHVTVSICRKYSDASDCHGEDSQAFCEKFSGQLNSHGCFYQQVKTKVFQLKRKEYEMKLHTEAQIQEEGTVVELTGRQSSEITRTITKLSFVKVDSHFRQGIPFFGQVRLVDGKGVPIPNKVIFIRGNEANYYSNATTDEHGLVQFSINTTNVMGTSLTVRVNYKDRSPCYGYQWVSEEHEEAHHTAYLVFSPSKSFVHLEPMSHELPCGHTQTVQAHYILNGGTLLGLKKLSFYYLIMAKGGIVRTGTHGLLVKQEDMKGHFSISIPVKSDIAPVARLLIYAVLPTGDVIGDSAKYDVENCLANKVDLSFSPSQSLPASHAHLRVTAAPQSVCALRAVDQSVLLMKPDAELSASSVYNLLPEKDLTGFPGPLNDQDDEDCINRHNVYINGITYTPVSSTNEKDMYSFLEDMGLKAFTNSKIRKPKMCPQLEQYEMHGPEGLRVGTAQEAGEGFYESDVMGRGHARLVHVEEPHTKLLRKYFPETWIWDLVVVNSAGVAEVGVTVPDTITEWKAGAFCLSEDAGLGISSTASLRAFQPFFVELTMPYSVIRGEAFTLKATVLNYLPKCIRVSVQLEASPAFLAVPVEKEQAPHCICANGRQTVSWAVTPKSLGNVNFTVSAEALESQELCGTEVPSVPEHGRKDTVIKPLLVEPEGLEKETTFNSLLCPSGGEVSEELSLKLPPNVVEESARASVSVLGDILGSAMQNTQNLLQMPYGCGEQNMVLFAPNIYVLDYLNETQQLTPEIKSKAIGYLNTGYQRQLNYKHYDGSYSTFGERYGRNQGNTWLTAFVLKTFAQARAYIFIDEAHITQALIWLSQRQKDNGCFRSSGSLLNNAIKGGVEDEVTLSAYITIALLEIPLTVTHPVVRNALFCLESAWKTAQEGDHGSHVYTKALLAYAFALAGNQDKRKEVLKSLNEEAVKKDNSVHWERPQKPKAPVGHFYEPQAPSAEVEMTSYVLLAYLTAQPAPTSEDLTSATNIVKWITKQQNAQGGFSSTQDTVVALHALSKYGAATFTRTGKAAQVTIQSSGTFSSKFQVDNNNRLLLQQVSLPELPGEYSMKVTGEGCVYLQTSLKYNILPEKEEFPFALGVQTLPQTCDEPKAHTSFQISLSVSYTGSRSASNMAIVDVKMVSGFIPLKPTVKMLERSNHVSRTEVSSNHVLIYLDKVSNQTLSLFFTVLQDVPVRDLKPAIVKVYDYYETDEFAIAEYNAPCSKDLGNADYKDDDDKGASHHHHHH
As to B2, the “Protease Inhibition (% of WT)” value with ADAMTS4 was 210 % of WT; with ADAMTS5 it was 250 % of WT; with MMP1 it was 170 % of WT; with MMP8, 160 % of WT; with MMP13 it was 90 % of WT; with MMP2, 110 % of WT. For the same molecule, the “Protease Inhibition (% of WT)” value in the experiment with MMP9 was 50 % of WT; with MMP3 it was 80 % of WT.

These data come from patent US20230250154A1 (CYTONICS, published 2023).
